# In paper PMC8442874:
# Molecular target: Soc-SpyCatcher fusion protein (displayed on T4 phage: T4-SpyCatcher phage) (bacteriophage T4)
# Test: co-sedimentation
substance,measurement,value
S-ecto-6P-SpyTagged trimer (prefusion-stabilized hexa-Pro SARS-CoV-2 spike ectodomain with C-terminal SpyTag) (from UniProt P0DTC2 14-1208) (domain or fragment),copies per capsid (S-trimers per phage capsid),100
